Assay results reported in US20110212110A1 (INNATE PHARMA, published 2011).

Tests used:
[1] = target: T1, human TLR4 expressed in 293T cells (293T-TLR4 transfectants) (human, UniProt O00206 24-839); experiment: IHC on paraffin-embedded cell pellet, ENVISION amplification
T1 construct: also called Toll-Like Receptor 4
Method: 40F9.6 was tested on tonsil tissue with different detection systems, in order to identify the detection system yielding the strongest signal, with the lowest […]. The ENVISION System commercialized by DAKO A/S (Glostrup, Denmark) was selected. ENVISION is an amplification system based on an HRP-labeled polymer conjugated to secondary antibodies. Tissue sections were dewaxed and rehydrated before the antigen unmasking procedure in boiled citrate buffer (pH6). Endogenous peroxydases were blocked by a 3% solution of H₂O₂.
40F9.6 was tested in a series of paraffin-embedded samples.

[2] = target: T2, recombinant human His-tagged TLR3 extracellular domain protein (R&D systems, #1487-TR-050) (human, UniProt O15455 24-704); experiment: ELISA, His-tagged TLR3 or TLR4 on Ni-NTA plates, hybridoma supernatant, goat anti-mouse F(ab) IgG-HRP
T2 construct: Bought protein; also called recombinant human TLR3; rec TLR3; not shown: His tag
Text: Immune spleen cells were fused with X63.Ag8.653 immortalized B cells, and cultured in the presence of irradiated spleen cells. 40 culture plates were obtained and evaluated in a first screen for TLR3 binding using an ELISA developed for detection of binding to TLR3. Briefly, His-tagged recombinant TLR3 protein (R&D systems, #1487-TR-050) was coated on Ni-NTA 96-wells plates (Qiagen). […] Positive supernatants were selected and tested for lack of binding to TLR4. Briefly, His-tagged rec TLR4 protein (R&D systems, #3146-TR-050) were coated on Ni-NTA 96-wells plates (Qiagen). […] TLR4 was chosen as a 2nd screen in order to discriminate among wells selected in the 1st screen, where anti-His specific antibody from TLR3 specific antibody were used.
Cloning of hybridomas of potential interest. 42 potentially interesting hybridomas selected from the initial screening were cloned by limiting dilution techniques in 96-wells plates, and 304 subclones were tested in a series of screens as follows. […] All supernatants yielding a ratio above 10 for DO obtained in TLR3 ELISA to DO obtained in TLR4 ELISA were selected as specific for TLR3. Among them was supernatant from well F9 of plate 40 (40F9).

binding result [1]: no binding (tested: 10 µg/ml)
ratio of DO obtained in TLR3 ELISA to DO obtained in TLR4 ELISA [2]: 10
B1: monoclonal antibody 40F9 (clone 40F9.6) (antibody, mouse IgG1, V domains shown)
VH: QIQLVQSGPELKKPGETVKISCKASGYTFTNYGMNWVKQAPGKGLKWMGWINANTGEPTYAEEFKGRFAFSLETSDSTAYLQINNLKNEDTATYFCASDYDYWGQGTTLTVSS
VL: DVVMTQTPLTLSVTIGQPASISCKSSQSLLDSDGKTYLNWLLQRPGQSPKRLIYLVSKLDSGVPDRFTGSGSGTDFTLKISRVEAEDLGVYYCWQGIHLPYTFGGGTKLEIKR
notes: Mouse hybridoma antibody (Balb/c); also called supernatant from well F9 of plate 40
